Two molecules from article PMC4115224, “Real-Time Interaction between TBP and the TATA Box of the Human Triosephosphate Isomerase Gene Promoter in the Norm and Pathology” can be followed below.

Series [1] concerns the target T1, TATA-binding protein (TBP) (human, UniProt P20226 1-339). Briefly: stopped-flow FRET; kon (0.2 ± 0.1)e6 M-1 s-1; koff (8.9 ± 1.2)e-2 s-1; KA 2.3e6 M-1; 25 C; 25 C; 0.1 uM DNA duplex; TBP 0.1-2 uM (T allele) or 0.4-4 uM (G allele); buffer, salt and pH not given in the material. The settings on record: protein: recombinant; label: Cy3/Cy5 FRET pair at the duplex ends.

In series [2] the target is T1, TATA-binding protein (TBP). Put plainly: stopped-flow FRET; kon (1.1 ± 0.1)e6 M-1 s-1; koff (2.8 ± 0.1)e-3 s-1; KA 3.7e8 M-1; 25 C; 25 C; 0.1 uM DNA duplex; TBP 0.1-2 uM (T allele) or 0.4-4 uM (G allele); buffer, salt and pH not given in the material. The settings on record: protein: recombinant; label: Cy3/Cy5 FRET pair at the duplex ends.

T1 sequence (P20226 whole entry): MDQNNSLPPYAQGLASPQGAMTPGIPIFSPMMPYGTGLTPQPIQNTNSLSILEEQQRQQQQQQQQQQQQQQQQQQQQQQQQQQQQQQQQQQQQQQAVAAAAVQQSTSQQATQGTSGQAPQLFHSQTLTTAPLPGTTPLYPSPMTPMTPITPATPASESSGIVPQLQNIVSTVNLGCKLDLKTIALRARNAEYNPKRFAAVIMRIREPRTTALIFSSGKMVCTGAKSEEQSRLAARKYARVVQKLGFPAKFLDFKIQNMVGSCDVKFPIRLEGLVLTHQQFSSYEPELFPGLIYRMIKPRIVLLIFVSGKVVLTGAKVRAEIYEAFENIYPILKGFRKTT

B1: TPI TATA box, -24T>G SNP (G allele) (dsDNA)
DNA 1: GCTCTATAGAAGTGG
DNA 2: CCACTTCTATAGAGC
In the case of B1, the dissociation constant (Kd) in series [1] is 400 nM.

B2: TPI TATA box, wild type (T allele) (dsDNA)
DNA 1: GCTCTATATAAGTGG
DNA 2: CCACTTATATAGAGC
As for B2, in series [2], the Kd was 2.7 nM.

A word on the Kd: it is the equilibrium constant for the complex coming apart.
